B1: GST-tagged ATL3 (natural protein, human, UniProt Q6DD88 1-541, looked up)
chain: MLSPQRVAAAASRGADDAMESSKPGPVQVVLVQKDQHSFELDEKALASILLQDHIRDLDVVVVSVAGAFRKGKSFILDFMLRYLYSQKESGHSNWLGDPEEPLTGFSWRGGSDPETTGIQIWSEVFTVEKPGGKKVAVVLMDTQGAFDSQSTVKDCATIFALSTMTSSVQIYNLSQNIQEDDLQQLQLFTEYGRLAMDEIFQKPFQTLMFLVRDWSFPYEYSYGLQGGMAFLDKRLQVKEHQHEEIQNVRNHIHSCFSDVTCFLLPHPGLQVATSPDFDGKLKDIAGEFKEQLQALIPYVLNPSKLMEKEINGSKVTCRGLLEYFKAYIKIYQGEDLPHPKSMLQATAEANNLAAAASAKDIYYNNMEEVCGGEKPYLSPDILEEKHCEFKQLALDHFKKTKKMGGKDFSFRYQQELEEEIKELYENFCKHNGSKNVFSTFRTPAVLFTGIVALYIASGLTGFIGLEVVAQLFNCMVGLLLIALLTWGYIRYSGQYRELGGAIDFGAAYVLEQASSHIGNSTQATVRDAVVGRPSMDKKAQ

Assays:
GST-tagged ATL3 = molecular target: B1; assay: pull-down
[1] = molecular target: ATL2-1 (major splice isoform of ATL2) (human, UniProt Q8NHH9 1-583); assay: cross-linking

binding result (GST-tagged ATL3)	binding result [1]	Binder
binds		His6-tagged N-terminal cytoplasmic domain of ATL2 (1–480) (domain or fragment, human, UniProt Q8NHH9 1-480, looked up) MAEGDEAARGQQPHQGLWRRRRTSDPSAAVNHVSSTTSLGENYEDDDLVNSDEVMKKPCPVQIVLAHEDDHNFELDEEALEQILLQEHIRDLNIVVVSVAGAFRKGKSFLLDFMLRYMYNKDSQSWIGGNNEPLTGFTWRGGCERETTGIQVWNEVFVIDRPNGTKVAVLLMDTQGAFDSQSTIKDCATVFALSTMTSSVQVYNLSQNIQEDDLQHLQLFTEYGRLAMEEIYQKPFQTLMFLIRDWSYPYEHSYGLEGGKQFLEKRLQVKQNQHEELQNVRKHIHNCFSNLGCFLLPHPGLKVATNPSFDGRLKDIDEDFKRELRNLVPLLLAPENLVEKEISGSKVTCRDLVEYFKAYIKIYQGEELPHPKSMLQATAEANNLAAVAGARDTYCKSMEQVCGGDKPYIAPSDLERKHLDLKEVAIKQFRSVKKMGGDEFCRRYQDQLEAEIEETYANFIKHNDGKNIFYAARTPATLFA
	binds	B1
